Here are results for ten molecules from patent US20040072301A1 (VAN ANDEL RESEARCH INSTITUTE, published 2004).

Changes are numbered by the printed parent chain. Names may count otherwise.

The target in assay [1] is T1, Arp2/3 complex from NIH 3T3 cell lysates (UniProt P61161 1-394; Q99JY9 2-418; Q9WV32 1-372; Q9CVB6 1-300; Q9JM76 2-178; P59999 …). The experiment in a line: GST pull-down from NIH 3T3 cell lysates, immunoblot with anti-p34 Arc. Here is the method:
15 μg of the indicated fusion protein was indubated with lysates as in FIGS. 7a-7c. Bound material was detected after extensive washing and immunoblotting with anti-p34 Arc.
(§1) Recombinant protein purification, in vitro GST-‘pull downs’ and two-hybrid assays. Two-hybrid assays and in vitro translation/GST-pull downs were conducted as previously described (Tominaga et al., supra; Sahai, E. et al., Embo J 17, 1350-61 (1998)). […] Beads were rinsed three times with PBS 1×supplemented with 0.1 μg/μl of BSA and were analyzed by SDS-PAGE and immunoblotted with purified antibodies recognising either Arp3, p34, or actin. For pull-downs from cell extracts, NIH 3T3 cells were lysed and extracted as per (Machesky, L. M. et al., Curr Biol 8, 1347-56 (1998)), and incubated with purified GST-fusion proteins bound to glutathione beads before extensive washing, separation by SDS-PAGE, transfer, and immunoblotting.
A general note: Immunoblotting shows a protein as a band on a membrane.

The target of assay [2] is mDia2 (amino acids 47-800), yeast two-hybrid Gal4 fusion (mouse, UniProt Q9Z207 47-800). Description: yeast two-hybrid. The method, then: (§2) Two-hybrid assays and in vitro translation/GST-pull downs were conducted as previously described (Kikyo et al., supra; Hill, C. S. et al., supra). In short, the indicated ‘bait’ proteins were generated by subcloning the indicated cDNAs into pGBT9 Gal4 DNA binding domain plasmid; ‘prey’ were Gal4 activation domain fusion proteins generated in either pGAD 10 or pSE1107. HF7c (Clontech) reporter yeast strain were co-transformed with the indicated plasmids and selected on appropriate plates for bait and prey auxotrophic markers, then restreaked onto His-plate to select for Gal4 regulated HIS reporter expression. Levels of reporter activity were monitored by replicate streaking onto Trp/Leu/His-plates with increasing concentrations (0-64 mM) of 3-aminotriazole.
Sequence of mDia2 (amino acids 47-800), yeast two-hybrid Gal4 fusion (Q9Z207 47-800 limits assumed): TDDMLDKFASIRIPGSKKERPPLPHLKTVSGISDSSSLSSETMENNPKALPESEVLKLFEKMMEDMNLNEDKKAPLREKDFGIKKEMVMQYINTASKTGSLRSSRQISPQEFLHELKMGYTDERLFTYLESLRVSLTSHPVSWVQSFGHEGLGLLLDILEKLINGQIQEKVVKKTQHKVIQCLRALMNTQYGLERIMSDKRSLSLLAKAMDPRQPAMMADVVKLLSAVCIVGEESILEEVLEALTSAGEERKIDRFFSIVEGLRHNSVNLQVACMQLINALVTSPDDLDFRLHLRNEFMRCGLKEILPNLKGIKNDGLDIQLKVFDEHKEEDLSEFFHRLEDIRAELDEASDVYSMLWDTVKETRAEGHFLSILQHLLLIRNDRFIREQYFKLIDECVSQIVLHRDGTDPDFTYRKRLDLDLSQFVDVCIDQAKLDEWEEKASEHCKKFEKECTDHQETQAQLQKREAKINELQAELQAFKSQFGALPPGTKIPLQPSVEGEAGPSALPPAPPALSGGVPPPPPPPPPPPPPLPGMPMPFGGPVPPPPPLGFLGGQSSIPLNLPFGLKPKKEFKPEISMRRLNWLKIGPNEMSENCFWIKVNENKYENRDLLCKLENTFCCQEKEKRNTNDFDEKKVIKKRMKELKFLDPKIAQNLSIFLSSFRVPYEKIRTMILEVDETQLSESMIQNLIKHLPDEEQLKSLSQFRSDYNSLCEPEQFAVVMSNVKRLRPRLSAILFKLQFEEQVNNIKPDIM
The mutants were tested for binding by two-hybrid analysis and were then expressed in cells.

The target in assay [3] is T1, Arp2/3 complex from NIH 3T3 cell lysates. Description: GST pull-down from NIH 3T3 cell extracts, immunoblot. The method, then:
as §1
After incubation, the complexes were washed extensively and the resulting protein complexes were separated by SDS-PAGE, transferred to membranes, and analyzed by Western blots using antibodies directed to actin, Arp3 and p34 Arc (Welch, M. D. et al., Nature 385, 265-9 (1997)).

Assay [4] addresses T2, mDia2 DAD (amino acids 1031-1171), yeast two-hybrid Gal4 fusion (mouse, UniProt Q9Z207 1031-1171).
T2 construct: Two-hybrid construct; also called DRF-autoregulatory domain; Dia-autoregulatory domain
Description: yeast two-hybrid, HIS reporter growth on 3-aminotriazole. Here is the method:
Yeast reporter strain HF7c was transformed with the indicated ‘bait’ (Trp⁻) and ‘prey’ (Leu⁻) plasmids before restreaking on selective plates (His) with increasing concentrations 3-aminotriazole (0, 2, 4, 8, 16, 32, and 64 mM) that selects for correlating expression of the HIS-reporter gene. The indicated numbers correspond to the highest concentration of 3-AT on which there was growth after 3 days. […] The mDia2 plasmid encodes amino acids 47-800.
as §2

B1: GST-DAD K1059E/R1060E (other)
chain: MKTEGDETGVMDSLLEALQSGAAFRDRREETPKLKDIRQSLSPMSQRPVLKVCNHENQKMQLTEGSRPHHSINCNSTRTPVAKELNYNLDTHASTGRIKAVEKEACNAESNKKKEMELLGSVAKSESVPEVEALLARLRAL
notes: not shown: Glutathione-S-transferase carrier (pGEX-KG) and its linker at the N end
B1: in assay [1], the binding result is given as “no binding (tested: 15 ug fusion protein)”.

B2: mDia2 DAD M1041A, yeast two-hybrid Gal4 fusion (other, not shown: small tags and cut ends)
chain: B1 chain with M11A, E29K, E30R
On to B2, for which the binding result in assay [2] was “no binding”.

B3: GST-DAD R1057E/R1058E (other)
chain: B1 chain with R27E, R28E, E29K, E30R
notes: as for B1
For B3, the binding result in assay [1] is recorded as “no binding (tested: 15 ug fusion protein)”.

B4: mDia2 DAD L1048A, yeast two-hybrid Gal4 fusion (other, not shown: small tags and cut ends)
chain: B1 chain with L18A, E29K, E30R
As for B4, in assay [2], the binding result was “no binding”.

B5: mDia2 DAD L1044A, yeast two-hybrid Gal4 fusion (other, not shown: small tags and cut ends)
chain: B1 chain with L14A, E29K, E30R
Turning to B5, the binding result in assay [2] was “no binding”.

B6: GST fusion of mDia2 GBD (amino acids 101-216) (other)
chain: VLKLFEKMMEDMNLNEDKKAPLREKDFGIKKEMVMQYINTASKTGSLRSSRQISPQEFLHELKMGYTDERLFTYLESLRVSLTSHPVSWVQSFGHEGLGLLLDILEKLINGQIQEK
notes: not shown: glutathione-S-transferase tag of pGEX-KG
As for B6, the binding result in assay [3] is reported as “no binding”.

B7: GST fusion of mDia2 FH2 (amino acids 801-910) (other)
chain: AVSTACEEIKKSKGFSKLLELVLLMGNYMNAGSRNAQTFGFDLSSLCKLKDTKSADQKTTLLHFLVDVCEEKHADILHFVDDLAHLDKASRVSVEMLEKNVKQMGRQLQQ
notes: as for B6
In the case of B7, in assay [3], the binding result is given as “no binding”.

B8: mDia2 FH2 (amino acids 801-910), yeast two-hybrid Gal4 fusion (other, not shown: small tags and cut ends)
chain: B7 chain
As to B8, the binding result in assay [4] was “no binding”.

B9: mDia2 FH1 (amino acids 521-630), yeast two-hybrid Gal4 fusion (other, not shown: small tags and cut ends)
chain: AELQAFKSQFGALPPGTKIPLQPSVEGEAGPSALPPAPPALSGGVPPPPPPPPPPPPPLPGMPMPFGGPVPPPPPLGFLGGQSSIPLNLPFGLKPKKEFKPEISMRRLNW
B9: in assay [4], the binding result is reported as “no binding”.

B10: GST fusion of mDia2 FH1 (amino acids 521-630) (other)
chain: B9 chain
notes: as for B6
On to B10, for which the binding result in assay [3] is listed as “no binding”.
